We go through three molecules from patent US20250313635A1, “ANTI-INTEGRIN ANTIBODIES AND USES THEREOF” (Merck Sharp & Dohme LLC, priority 2022, published 2025).

A word on the IC50: it is the concentration that gives 50% inhibition.

The chains are these.
B1: Ab-30 (antibody, V domains shown)
VH: EVQLQESGPGLVKPSETLSLTCAVSGYSISSGYYWGWIRQPPGKGLEWIGSIYHSGNTYYNPSLKSRVTISVDTSKNQFSLKLSSVTAADTAVYYCARVPRYSRGDAYYYYGMDVWGQGTTVTVSS
VL: DIQMTQSPSTLSASVGDRVTITCRASQSISSWLAWYQQKPGKAPKLLIYKASSLESGVPSRFSGSGSGTEFTLTISSLQPDDFATYYCQQVKIYPPYTFGGGTKVEIK
B2: Ab-31 (antibody, V domains shown)
VH: EVQLQESGPGLVKPSETLSLTCAVSGYSISSGYYWGWIRQPPGKGLEWIGSIYHSGNTYYNPSLKSRVTISVDTSKNQFSLKLSSVTAADTAVYYCARVPRYSRGDAYYYYGMDVWGQGTTVTVSS
VL: DIQMTQSPSTLSASVGDRVTITCRASQSIGSWLAWYQQKPGKAPKLLIYKASSLESGVPSRFSGSGSGTEFTLTISSLQPDDFATYYCQQSGPYPWTFGGGTKVEIK
B3: Ab-29 (antibody, V domains shown)
VH: ELQLQESGPGLVKPSETLSLTCTVSGGSISSNSYYWGWIRQPPGKGLEWIGSIYYSGSTYYNPSLKSRVTISVDTSKNQFSLKLSSVTAADTAVYYCARVRRVAGRGDSYYYYYGMDVWGQGTTVTVSS
VL: DIQMTQSPSSVSASVGDRVTITCRASQGISRWLAWYQQKPGKAPKLLIYAASSLQSGVPSRFSGSGSGTDFTLTISSLQPEDFATYYCQQAISHPWTFGGGTKVEIK

For the test, the target named is recombinant mouse αvβ8 integrin extracellular domains (mouse) (UniProt P43406). Briefly: AlphaLISA blocking of mouse LAP-6His binding.
Sequence of recombinant mouse αvβ8 integrin extracellular domains (mouse) (P43406 other isoform, or with tags, fused parts or gaps, form in doubt, chain 1 of 2): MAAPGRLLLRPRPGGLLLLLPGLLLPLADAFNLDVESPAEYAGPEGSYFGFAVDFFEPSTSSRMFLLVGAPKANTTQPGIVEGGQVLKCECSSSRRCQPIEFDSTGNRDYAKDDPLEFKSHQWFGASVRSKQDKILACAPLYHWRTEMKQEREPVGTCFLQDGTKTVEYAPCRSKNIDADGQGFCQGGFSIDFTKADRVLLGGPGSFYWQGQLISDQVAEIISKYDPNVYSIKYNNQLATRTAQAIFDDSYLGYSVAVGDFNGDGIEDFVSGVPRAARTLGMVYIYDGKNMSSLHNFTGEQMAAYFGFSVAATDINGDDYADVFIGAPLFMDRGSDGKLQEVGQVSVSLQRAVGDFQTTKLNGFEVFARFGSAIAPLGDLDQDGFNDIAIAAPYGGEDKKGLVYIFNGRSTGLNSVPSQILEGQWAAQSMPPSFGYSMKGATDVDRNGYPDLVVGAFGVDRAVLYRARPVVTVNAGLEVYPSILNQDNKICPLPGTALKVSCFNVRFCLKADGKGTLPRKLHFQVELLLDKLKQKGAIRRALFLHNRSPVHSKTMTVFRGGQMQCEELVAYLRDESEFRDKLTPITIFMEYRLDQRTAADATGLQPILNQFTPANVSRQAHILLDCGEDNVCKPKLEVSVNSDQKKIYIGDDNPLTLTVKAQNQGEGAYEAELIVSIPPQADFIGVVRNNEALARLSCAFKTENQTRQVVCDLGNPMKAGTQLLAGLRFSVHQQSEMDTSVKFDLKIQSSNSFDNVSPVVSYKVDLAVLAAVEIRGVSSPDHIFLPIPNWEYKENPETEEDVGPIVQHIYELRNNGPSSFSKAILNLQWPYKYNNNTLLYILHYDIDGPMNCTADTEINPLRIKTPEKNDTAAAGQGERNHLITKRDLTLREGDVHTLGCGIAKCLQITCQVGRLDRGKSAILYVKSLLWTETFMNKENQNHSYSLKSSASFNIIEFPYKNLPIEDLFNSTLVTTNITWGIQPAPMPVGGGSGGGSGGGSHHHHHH
Sequence of recombinant mouse αvβ8 integrin extracellular domains (mouse) (Q0VBD0 other isoform, or with tags, fused parts or gaps, form in doubt, chain 2 of 2, further chain): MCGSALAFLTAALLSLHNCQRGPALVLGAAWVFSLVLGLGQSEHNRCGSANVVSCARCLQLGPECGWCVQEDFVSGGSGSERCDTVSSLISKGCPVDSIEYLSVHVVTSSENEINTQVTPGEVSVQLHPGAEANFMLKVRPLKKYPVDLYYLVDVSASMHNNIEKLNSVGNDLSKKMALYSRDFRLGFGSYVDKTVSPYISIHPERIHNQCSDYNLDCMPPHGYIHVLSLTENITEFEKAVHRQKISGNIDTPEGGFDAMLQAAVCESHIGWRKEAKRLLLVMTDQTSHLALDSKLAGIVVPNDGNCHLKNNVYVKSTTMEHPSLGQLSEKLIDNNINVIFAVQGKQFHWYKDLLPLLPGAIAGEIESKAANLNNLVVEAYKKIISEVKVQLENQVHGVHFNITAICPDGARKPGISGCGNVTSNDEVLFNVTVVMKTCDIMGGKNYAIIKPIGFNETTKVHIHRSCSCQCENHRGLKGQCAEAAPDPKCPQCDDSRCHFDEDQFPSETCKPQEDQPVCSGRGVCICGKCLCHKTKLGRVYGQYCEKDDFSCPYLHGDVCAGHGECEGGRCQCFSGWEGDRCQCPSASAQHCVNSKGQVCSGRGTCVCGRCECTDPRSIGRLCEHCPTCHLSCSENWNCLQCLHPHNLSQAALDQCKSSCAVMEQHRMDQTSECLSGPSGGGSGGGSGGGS
For B1, the IC50 came to 25.1 nM. With B2, the concentration for half-maximal inhibition (IC50) came to 66.3 nM.

For B3, the half-maximal inhibitory concentration (IC50) came out at 102 nM.
